Tests used:
[1] = target: cynomolgus PD-1 expressed on cells (cynomolgus) (UniProt B0LAJ3); assay: flow cytometry on CHO cells expressing cynomolgus PD-1; detection with anti-human IgG Fc (PE GeoMFI); fit of a flat control curve
[2] = target: human PD-1 expressed on cells (human) (UniProt Q15116); assay: flow cytometry on CHO cells expressing human PD-1; detection with anti-human IgG Fc (PE GeoMFI); fit of a flat control curve
[3] = target: human PD-1 expressed on cells (human) (UniProt Q15116); assay: cell-based or functional assay

UniProt Q15116, sequence (Q15116 25-198 limits assumed): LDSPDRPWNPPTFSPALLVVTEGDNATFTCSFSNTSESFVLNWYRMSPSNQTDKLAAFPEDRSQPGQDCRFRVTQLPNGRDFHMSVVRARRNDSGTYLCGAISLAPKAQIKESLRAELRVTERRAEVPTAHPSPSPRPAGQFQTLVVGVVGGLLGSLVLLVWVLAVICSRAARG
UniProt B0LAJ3, sequence (B0LAJ3 entry or part of it limits assumed): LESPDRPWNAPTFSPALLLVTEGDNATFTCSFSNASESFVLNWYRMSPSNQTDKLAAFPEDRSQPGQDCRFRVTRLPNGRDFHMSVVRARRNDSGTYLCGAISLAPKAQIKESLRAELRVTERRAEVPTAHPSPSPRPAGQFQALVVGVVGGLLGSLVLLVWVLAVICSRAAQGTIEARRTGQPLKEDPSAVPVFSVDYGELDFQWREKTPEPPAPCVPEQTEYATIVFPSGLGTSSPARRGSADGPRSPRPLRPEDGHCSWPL

LogEC50 [1]	LogEC50 [2]	IL-17 and IFN-γ levels, human whole blood assay, EC50 [3] [nM]	Substance
-6.89 log10(nM)	-7.75 log10(nM)		huIgG1 Fc
		> 100	human IgG Fc fragment

From patent publication US20170088618A1
